This is an account of results in PMC10244175, “Seeding the aggregation of TDP-43 requires post-fibrillization proteolytic cleavage” (Nature Neuroscience, 2023).

This series deals with the molecule itself. Kind of series: cryo-EM structure; fibrils of recombinant CP (279–360); helical reconstruction in RELION; two populations (one protofilament 4.1 Å, two protofilaments 3.7 Å); model built for G281-G351.

B1: TDP-43 (279–360) core peptide (domain or fragment, UniProt Q13148 279-360, looked up)
chain: NPGGFGNQGGFGNSRGGGAGLGNNQGSNMGGGMNFGAFSINPAMMAAAQAALQSSWGMMGMLASQQNQSGPSGNNQNQGNMQ
notes: TDP-43 residues 279-360 (82 amino acids), part of the C-terminal domain; printed theoretical mass 8041.7 Da; the atomic model PDB 7Q3U covers G281-G351; The fusion is written as His6-Sumo-TDP-43 (279–360) CP; the tag is removed by Ulp-1; also called CP; CP (279–360); source: E. coli ER2566, purified (Ni-NTA, Ulp-1 cleavage, reverse-phase HPLC C18), lyophilized; fibrils formed at 50 µM in …
For B1, the binding result was “binds”.
